What is called stoichiometry N is the number of molecules, sites or subunits per partner or assembly.

The target of series [1] is 20S proteasome (human (endogenous in red blood cells)) (UniProt P25786). As to the kind of experiment: negative stain electron microscopy.
Series [2] concerns the molecule itself. As to the kind of experiment: negative stain electron microscopy.

Chain of 20S proteasome (human (endogenous in red blood cells)) (P25786 whole entry, looked up): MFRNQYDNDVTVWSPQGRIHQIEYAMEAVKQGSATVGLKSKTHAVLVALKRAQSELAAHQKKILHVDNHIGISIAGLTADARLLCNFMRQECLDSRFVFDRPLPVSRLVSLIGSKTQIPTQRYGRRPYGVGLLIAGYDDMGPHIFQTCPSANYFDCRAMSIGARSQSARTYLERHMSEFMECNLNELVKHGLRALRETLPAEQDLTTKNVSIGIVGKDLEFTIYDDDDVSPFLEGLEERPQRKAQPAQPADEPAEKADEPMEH

“19S regulatory cap of the proteasome (complex)” had a percent of the observed proteasomes that were singly-capped 26S in series [1] of 6%.

B1: peroxiredoxin PRDX2 (enzyme, human (endogenous in red blood cells), UniProt P32119 1-198, looked up)
chain: MASGNARIGKPAPDFKATAVVDGAFKEVKLSDYKGKYVVLFFYPLDFTFVCPTEIIAFSNRAEDFRKLGCEVLGVSVDSQFTHLAWINTPRKEGGLGPLNIPLLADVTRRLSEDYGVLKTDEGIAYRGLFIIDGKGVLRQITVNDLPVGRSVDEALRLVQAFQYTDEHGEVCPAGWKPGSDTIKPNVDDSKEYFSKHN
As for B1, in series [2], the “stoichiometry N” value amounted to 10.

The values above are taken from doi:10.1101/2021.12.10.472004 (bioRxiv, 2021).
